The text below walks through data of patent US20180022822A1, “NOVEL ANTI-FIBROBLAST ACTIVATION PROTEIN (FAP) BINDING AGENTS AND USES THEREOF” (Mabimmune Diagnostics AG, priority 2016, published 2018).

The target in data set [1] is T1, rhFAP and FAP SB9 oligopeptidase homologues (rhDPPIV, rhPOP/PREP, rhDPP8, rhDPP9) (Homo sapiens, UniProt Q12884).
T1 construct: purchased Sino Biologicals 10464-H07H
T1 sequence (Q12884 26-760 limits assumed): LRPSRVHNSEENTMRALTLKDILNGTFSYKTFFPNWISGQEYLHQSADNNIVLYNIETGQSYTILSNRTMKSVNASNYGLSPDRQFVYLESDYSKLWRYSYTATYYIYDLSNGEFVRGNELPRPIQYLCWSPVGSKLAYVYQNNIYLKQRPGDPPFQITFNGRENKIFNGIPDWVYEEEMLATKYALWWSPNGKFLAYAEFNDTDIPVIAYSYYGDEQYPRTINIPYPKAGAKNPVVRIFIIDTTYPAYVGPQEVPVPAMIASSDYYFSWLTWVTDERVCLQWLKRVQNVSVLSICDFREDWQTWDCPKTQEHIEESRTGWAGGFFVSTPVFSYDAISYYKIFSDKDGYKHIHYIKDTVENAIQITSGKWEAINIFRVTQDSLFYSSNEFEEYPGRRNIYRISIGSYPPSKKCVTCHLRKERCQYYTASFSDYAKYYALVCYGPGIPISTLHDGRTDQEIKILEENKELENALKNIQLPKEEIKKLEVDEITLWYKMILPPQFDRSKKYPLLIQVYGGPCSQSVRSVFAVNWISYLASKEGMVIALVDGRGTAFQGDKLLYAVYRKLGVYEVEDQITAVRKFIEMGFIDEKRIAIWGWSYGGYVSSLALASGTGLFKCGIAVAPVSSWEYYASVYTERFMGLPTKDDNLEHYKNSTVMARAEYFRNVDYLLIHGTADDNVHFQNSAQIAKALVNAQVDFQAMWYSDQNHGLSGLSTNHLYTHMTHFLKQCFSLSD
Kind of data set: ELISA binding to SB9 oligopeptidase family enzymes. The note with it: sandwich ELISA affinity (EC50) assays. As to the method:
To determine the binding efficiency and inhibitory ability of NI-206.82C2 against other members of the SB9 oligopeptidase family that have sequence similarity to FAP, indirect ELISA and inihibiton assays were performed on active enzyme targets. Active recombinant human enzymes evaluated in this assay include: Fibroblast Activation Protein (FAP; Sino Biologicals, 10464-H07H), Dipeptidyl Peptidase IV (DPPIV, BPS Bioscience 80040), Dipeptidyl Peptidase 8 (DPP8, BPS Bioscience 80080), Dipeptidyl Peptidase 9 (DPP9, BPS Bioscience 80080), and Prolyl Oligopeptidase/Prolyl Endopeptidase (POP/PREP, BPS Bioscience 80105). Each recombinant peptidase was expressed with a purification tag, and attached to the 96 well ELISA plate using either a mouse anti-Histidine antibody (CloneTech), or a mouse anti-Glutathione S-transferase (GST, Sino Biologicals, 111213-MM02) tag antibody. Each enzyme was validated to bind and remained active on the ELISA plate using enzyme specific fluorogenic substrates. H-Gly-Pro-AMC (ATT Bioquest, 13450) was used to validate the presence and activity of DPP4, DPP9, and DPP8. […] Following a washing step, bound antibody was detected using 3,3′,5,5′-Tetramethylbenzidine (TMB) substrate. The reaction was stopped after 10 minutes by adding 2N H2SO4 and the resulting change in optical density was quantified using an ELISA plate reader at […] absorbance (FIG. 7 E).

A further data set concerns MC38 colorectal tumors. Kind of data set: orthotopic syngeneic MC38 colorectal cancer model, MRI. Format: in vivo, mouse. The note with it: 20 mg/kg i.p. every 72 hours, 5 cycles, versus PBS. As to the method: […] mice were anesthetized by isofluorane inhalation, and the hepatic portal vein was accessed by median laparotomy (from xiphoid 4 cm caudally). Mice were injected with 1 million murine MC38 colorectal cancer cells. The origin of these cell is described in Science 19 Sep. 1986. MC-38 tumors were allowed to form for 7 days before treatment. Mice were treated with either PBS or NI-206.82C2 (20 mg/kg by intraperitoneal injection) every 72 hours for 5 treatment cycles, before being anesthetized by isofluourane inhalation. Small animal MRI imaging was performed using a Bruker 4.7 Tesla MRI to aquire images of liver metastases. Tumor images were analyzed on Myrian Software (Intrasense) to quantify tumor metastases and cumulative tumor diameter overall tumor burden.

A further data set deals with 4T1 breast tumor. The note with it: mouse, in vivo.

Protocol for 4T1 breast tumor: A murine cancer model was generated by the injection of 100′000 4T1 cultured breast tumor cells orthotopically into the 2nd left breast of Balb/c immunocompetent mice and allowed to grow for 7 days. Prior to in vivo imaging, the animals were shaved and de-epilated to remove fur for minimal absorbance and scattering of the incident optical light. In-vivo imaging was performed with the Maestro 500 imaging system (Cambridge Research Inc, Woburn, USA). For A680-82C2 detection, a band pass filter from 615 nm-665 nm and a highpass filter over 700 nm were used for excitation and emission light respectively, and fluorescence was detected by a CCD camera (cooled to 11° C.). A series of images were acquired at different wavelengths and then subjected to spectral unmixing (deconvolution of collected optical spectra; this enabled the unmixing of the Alexa680 fluorescence pattern from tissue auto-fluorescence and other spectral contributions).
Whole mice images were acquired at the following timepoints: before antibody injection, immediately after antibody injection, 6 h, 24 h, 48 h, and 6 d after antibody injection.

B1: NI-206.82C2: human-derived recombinant anti-FAP antibody; VH SEQ ID NO: 2 or 4 (PIMC), VL SEQ ID NO: 6 (antibody, V domains shown)
VH: QVQLQQSGPGLVKPSQTLSLTCAISGDSVSSNSVTWNWIRQSPSRGLEWLGRTYYRSKWYNDYAVSVKGRITINPDTSKNQFYLQLKSVTPEDAAVYYCARDSSILYGDYWGQGTLVTVSS
VL: QAVLTQPSSLSASPGASASLTCTLPSGINVGTYRIFWFQQKPGSPPQYLLSYKSDSDNHQGSGVPSRFSGSKDASANAGILLISGLQSEDEADYYCMIWHSSAWVFGGGTKLTVL
Take B1: the “binding selectivity for rhFAP over SB9 oligopeptidase homologues” value in data set [1] was “selectively binds to recombinant human FAP (rhFAP) but not FAP SB9 oligopeptidase homologues”. Further, in the data set on MC38 colorectal tumors, the cumulative tumor diameter entry was “reduced” and the number of metastases entry is given as “reduced”. In addition, the “antibody concentration after 6 d post antibody injection” value with 4T1 breast tumor is reported as “declines to almost zero”.
